# No end group written: not given here. *: point of attachment. Biotin = O=C1N[C@H]2[C@H](CS[C@H]2CCCCC(=O)*)N1
# T1: asyn_113-127_118A (human)
# T1 construct: substitution is already in the entry; also called pep7
# T1 peptide: Biotin-LEDMPADPDNEAYEM
# T2: asyn_113-127_124P (human)
# T2 construct: substitution is already in the entry; also called pep14
# T2 peptide: Biotin-LEDMPVDPDNEPYEM
# T3: asyn_113-127 (human)
# T3 construct: also called pep1
# T3 peptide: Biotin-LEDMPVDPDNEAYEM
# T4: asyn_113-127_127A (human)
# T4 construct: substitution is already in the entry; also called pep17
# T4 peptide: Biotin-LEDMPVDPDNEAYEA
# T5: asyn_113-127_114A (human)
# T5 construct: substitution is already in the entry; also called pep3
# T5 peptide: Biotin-LADMPVDPDNEAYEM
# T6: asyn_113-127_123A (human)
# T6 construct: substitution is already in the entry; also called pep12
# T6 peptide: Biotin-LEDMPVDPDNAAYEM
# T7: asyn_113-127_125A (human)
# T7 construct: substitution is already in the entry; also called pep15
# T7 peptide: Biotin-LEDMPVDPDNEAAEM
# T8: asyn_113-127_120A (human)
# T8 construct: substitution is already in the entry; also called pep9
# T8 peptide: Biotin-LEDMPVDADNEAYEM
# T9: asyn_113-127_119A (human)
# T9 construct: substitution is already in the entry; also called pep8
# T9 peptide: Biotin-LEDMPVAPDNEAYEM
# T10: asyn_113-127_117A (human)
# T10 construct: substitution is already in the entry; also called pep6
# T10 peptide: Biotin-LEDMAVDPDNEAYEM
# T11: asyn_113-127_122A (human)
# T11 construct: substitution is already in the entry; also called pep11
# T11 peptide: Biotin-LEDMPVDPDAEAYEM
# T12: asyn_113-127_126A (human)
# T12 construct: substitution is already in the entry; also called pep16
# T12 peptide: Biotin-LEDMPVDPDNEAYAM
# T13: asyn_113-127_115A (human)
# T13 construct: substitution is already in the entry; also called pep4
# T13 peptide: Biotin-LEAMPVDPDNEAYEM
# T14: asyn_113-127_116A (human)
# T14 construct: substitution is already in the entry; also called pep5
# T14 peptide: Biotin-LEDAPVDPDNEAYEM
# T15: asyn_113-127_124G (human)
# T15 construct: substitution is already in the entry; also called pep13
# T15 peptide: Biotin-LEDMPVDPDNEGYEM
# T16: asyn_113-127_113A (human)
# T16 construct: substitution is already in the entry; also called pep2
# T16 peptide: Biotin-AEDMPVDPDNEAYEM
# T17: asyn_113-127_121A (human)
# T17 construct: substitution is already in the entry; also called pep10
# T17 peptide: Biotin-LEDMPVDPANEAYEM
# B1: 20H4 (antibody, rat IgG2b, V domains shown)
# VH: AVQLVESGGGLVQPKESLKISCAASGFTFSNAAMYWVRQAPGKGLELLARIRTKPNNYATYHADSVKGRFTISRDDSQSMVYLHMGNLKTEDTAMYYCTADMATGDYWGPGVMVTVSS
# VL: DIQMTQSPPVLSVSVGDRVTLSCKASQNINKNLDWYQQKHGEAPKPLIYSTNNLQTGVPSRFSGSGSGTDYTLTISSLQPEDVATYYCYQYKSAWTFGGGTKLELR
# notes: also called clone 20H4; rat 20H4
# What was measured:
# [1] = target: alpha-synuclein phosphorylated at serine 129 (human, UniProt P37840 1-140); assay: SPR (Biacore), antibody captured, p129-Syn injected
# Protocol: Anti-mouse Fc antibody (obtained from GE Healthcare) was immobilized on the surface of a CM5 chip (obtained from GE Healthcare) through amine-coupling to reach about 6,000 to 8,000 response units (RU). The surface was activated by injection of a mixture of 1-ethyl-3-(3-dimethylaminopropyl)-carbodiimide (EDC) and N-hydroxysuccinimide (NETS), both obtained from GE Healthcare, for 7 minutes at room temperature. […] Both injections were done at room temperature.
# Purified rat anti alpha-synuclein antibody (10 μg/mL) was injected at room temperature and captured to reach 1,000 to 2,000 RU. […] Sensorgrams were fitted using a 1:1 Langmuir model to estimate kₒₙ and koff.
# [2] = target: T1, asyn_113-127_118A; assay: Ala-scan peptide ELISA, row C, run 2
# Protocol: (§1) 96-well Nunc plates were coated with 50 μL per well of 1 μg/mL streptavidin (from Jackson Immuno Research Laboratory) in PBS at 4° C. overnight. The plates were washed three times with PBST, and blocked with PBS containing 3% BSA at room temperature for 1 hour. The N-terminal biotinylated peptides were dissolved in Milli Q water to a concentration of 2 mg/mL, then further diluted to a concentration of 2 μg/mL with PBS. 50 μl of the diluted peptide was applied to the streptavidin-coated plates and incubated at 4° C. overnight. 2 μg/mL of biotinylated human alpha-synuclein was used as the positive control. The plates were washed three times with PBST before use. Purified antibody was diluted by serial dilution methods, from 20 μg/mL to 1 ng/mL, and 50 μL of the antibody solution was added to the peptide-coated wells. The plates were incubated for 1 hour at room temperature, then washed three times with PBST. Secondary detection antibody (goat anti-rat HRP (obtained from Southern Biotech)) was added with 1:5,000 dilutions and incubated for 1 hour at room temperature, then washed three times with PBST. Plates were developed with 50 μL/well of TMB substrate (Thermo Fisher) and quenched with 50 μL/well of 1 N sulfuric acid. The signal was quantified on a BioTek® plate reader at A450. A parallel repeat was performed for each peptide in a separate plate.
# [3] = target: T2, asyn_113-127_124P; assay: Ala-scan peptide ELISA, row C, run 2
# Protocol: as §1
# [4] = target: T3, asyn_113-127; assay: Ala-scan peptide ELISA, row C, run 2
# Protocol: as §1
# [5] = target: T4, asyn_113-127_127A; assay: Ala-scan peptide ELISA, row C, run 2
# Protocol: as §1
# [6] = target: T5, asyn_113-127_114A; assay: Ala-scan peptide ELISA, row C, run 2
# Protocol: as §1
# [7] = target: T6, asyn_113-127_123A; assay: Ala-scan peptide ELISA, row C, run 2
# Protocol: as §1
# [8] = target: T7, asyn_113-127_125A; assay: Ala-scan peptide ELISA, row C, run 2
# Protocol: as §1
# [9] = target: human alpha-synuclein pre-formed fibrils (human, UniProt P37840 1-140); assay: competition ELISA: fibrils titrated in solution against 0.6 nM antibody, free antibody read on aSyn-coated plate
# Protocol: Purified antibody was probed with different concentrations of alpha-synuclein fibrils in solution, and the levels of unbound antibody were measured by ELISA analysis. In this experiment, 0.6 nM (0.1 μg/mL) of purified antibody was dissolved in phosphate-buffered saline (PBS) solution. […] The mixtures were gently shaken at room temperature for 1 hour to reach equilibrium. After that, these samples were transferred to an alpha-synuclein protein-coated ELISA plate and incubated for 5 minutes. During this short incubation, antibody that was not associated to antigen in the previous solution could instead bind onto the plate, and thus be quantified using a standard ELISA technique. By this means, it was possible to determine the amount of free antibody in the initial mixture with alpha-synuclein fibrils at indicated concentrations.
# [10] = target: T8, asyn_113-127_120A; assay: Ala-scan peptide ELISA, row E, run 1
# Protocol: as §1
# [11] = target: T9, asyn_113-127_119A; assay: Ala-scan peptide ELISA, row E, run 1
# Protocol: as §1
# [12] = target: T1, asyn_113-127_118A; assay: Ala-scan peptide ELISA, row E, run 1
# Protocol: as §1
# [13] = target: T10, asyn_113-127_117A; assay: Ala-scan peptide ELISA, row E, run 1
# Protocol: as §1
# [14] = target: T11, asyn_113-127_122A; assay: Ala-scan peptide ELISA, row E, run 1
# Protocol: as §1
# [15] = target: biotinylated human alpha-synuclein (human, UniProt P37840 1-140); assay: Ala-scan peptide ELISA, row E, run 1
# Protocol: as §1
# [16] = target: T2, asyn_113-127_124P; assay: Ala-scan peptide ELISA, row E, run 1
# Protocol: as §1
# [17] = target: T12, asyn_113-127_126A; assay: Ala-scan peptide ELISA, row E, run 1
# Protocol: as §1
# [18] = target: T3, asyn_113-127; assay: Ala-scan peptide ELISA, row E, run 1
# Protocol: as §1
# [19] = target: T13, asyn_113-127_115A; assay: Ala-scan peptide ELISA, row E, run 1
# Protocol: as §1
# [20] = target: T14, asyn_113-127_116A; assay: Ala-scan peptide ELISA, row E, run 1
# Protocol: as §1
# [21] = target: T4, asyn_113-127_127A; assay: Ala-scan peptide ELISA, row E, run 1
# Protocol: as §1
# [22] = target: T15, asyn_113-127_124G; assay: Ala-scan peptide ELISA, row E, run 1
# Protocol: as §1
# [23] = target: T5, asyn_113-127_114A; assay: Ala-scan peptide ELISA, row E, run 1
# Protocol: as §1
# [24] = target: T16, asyn_113-127_113A; assay: Ala-scan peptide ELISA, row E, run 1
# Protocol: as §1
# [25] = target: T17, asyn_113-127_121A; assay: Ala-scan peptide ELISA, row E, run 1
# Protocol: as §1
# [26] = target: T6, asyn_113-127_123A; assay: Ala-scan peptide ELISA, row E, run 1
# Protocol: as §1
# [27] = target: T7, asyn_113-127_125A; assay: Ala-scan peptide ELISA, row E, run 1
# Protocol: as §1
# [28] = target: T8, asyn_113-127_120A; assay: Ala-scan peptide ELISA, row F, run 2
# Protocol: as §1
# [29] = target: T10, asyn_113-127_117A; assay: Ala-scan peptide ELISA, row F, run 2
# Protocol: as §1
# [30] = target: T3, asyn_113-127; assay: Ala-scan peptide ELISA, row F, run 2
# Protocol: as §1
# [31] = target: T14, asyn_113-127_116A; assay: Ala-scan peptide ELISA, row F, run 2
# Protocol: as §1
# [32] = target: T4, asyn_113-127_127A; assay: Ala-scan peptide ELISA, row F, run 2
# Protocol: as §1
# [33] = target: T16, asyn_113-127_113A; assay: Ala-scan peptide ELISA, row F, run 2
# Protocol: as §1
# [34] = target: T17, asyn_113-127_121A; assay: Ala-scan peptide ELISA, row F, run 2
# Protocol: as §1
# [35] = target: T6, asyn_113-127_123A; assay: Ala-scan peptide ELISA, row F, run 2
# Protocol: as §1
binder,measurement,setting,value
B1,Kd,[1],6.14 nM
same,A450,[2],0.44 OD
same,A450,[3],0.055 OD
same,A450,[4],0.307 OD
same,A450,[5],0.443 OD
same,A450,[6],0.367 OD
same,A450,[7],0.377 OD
same,A450,[8],0.052 OD
same,IC50,[9],1.73 nM
same,A450,[10],0.2 OD
same,A450,[11],0.05 OD
same,A450,[12],0.324 OD
same,A450,[13],0.304 OD
same,A450,[14],0.051 OD
same,A450,[15],0.383 OD
same,A450,[16],0.044 OD
same,A450,[17],0.235 OD
same,A450,[18],0.297 OD
same,A450,[19],0.183 OD
same,A450,[20],0.296 OD
same,A450,[21],0.248 OD
same,A450,[22],0.214 OD
same,A450,[23],0.273 OD
same,A450,[24],0.302 OD
same,A450,[25],0.249 OD
same,A450,[26],0.282 OD
same,A450,[27],0.045 OD
same,A450,[28],0.111 OD
same,A450,[29],0.163 OD
same,A450,[30],0.148 OD
same,A450,[31],0.165 OD
same,A450,[32],0.162 OD
same,A450,[33],0.159 OD
same,A450,[34],0.143 OD
same,A450,[35],0.151 OD

# — patent US20230074436A1 (DENALI THERAPEUTICS, published 2023)
